To fix the notation:
T1: CCL5_HUMAN (human, UniProt P13501 24-91)
T1 sequence: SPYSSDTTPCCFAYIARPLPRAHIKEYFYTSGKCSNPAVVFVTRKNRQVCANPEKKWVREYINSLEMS

T2: CCL18_HUMAN (human, UniProt P55774 21-89)
T2 sequence: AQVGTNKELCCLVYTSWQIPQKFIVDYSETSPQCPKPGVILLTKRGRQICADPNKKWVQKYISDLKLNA

T3: CXCL8_HUMAN (human, UniProt P10145 28-99)
T3 sequence: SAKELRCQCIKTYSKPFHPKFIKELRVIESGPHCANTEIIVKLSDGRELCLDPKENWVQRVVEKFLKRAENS

T4: CXCL13_HUMAN (human, UniProt O43927 23-109)
T4 sequence: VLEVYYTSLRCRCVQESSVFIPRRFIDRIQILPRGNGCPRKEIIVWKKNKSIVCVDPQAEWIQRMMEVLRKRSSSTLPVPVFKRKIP

T5: CXCL10_HUMAN (human, UniProt P02778 22-98)
T5 sequence: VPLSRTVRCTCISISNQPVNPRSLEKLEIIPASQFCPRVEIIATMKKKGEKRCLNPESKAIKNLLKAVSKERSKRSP

T6: CXCL7_HUMAN (human, UniProt P02775 59-128)
T6 sequence: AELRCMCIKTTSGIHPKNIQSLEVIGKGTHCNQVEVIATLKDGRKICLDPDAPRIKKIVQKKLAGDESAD

T7: CCL8_HUMAN (human, UniProt P80075 24-99)
T7 sequence (looked up): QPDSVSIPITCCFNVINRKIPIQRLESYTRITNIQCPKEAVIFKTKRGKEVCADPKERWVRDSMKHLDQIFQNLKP

T8: CXCL1_HUMAN (human, UniProt P09341 35-107)
T8 sequence: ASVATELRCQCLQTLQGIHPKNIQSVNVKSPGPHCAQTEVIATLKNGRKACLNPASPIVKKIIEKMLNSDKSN

T9: CCL17_HUMAN (human, UniProt Q92583 24-94)
T9 sequence: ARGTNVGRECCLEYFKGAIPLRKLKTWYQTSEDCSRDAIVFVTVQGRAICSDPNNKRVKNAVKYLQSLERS

T10: CCL16_HUMAN (human, UniProt O15467 24-120)
T10 sequence: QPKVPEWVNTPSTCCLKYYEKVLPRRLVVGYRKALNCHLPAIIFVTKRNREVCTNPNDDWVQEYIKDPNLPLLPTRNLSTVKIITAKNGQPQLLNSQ

T11: P1134_IXORI (Ixodes ricinus, UniProt A0A0K8RAI0 32-135)
T11 sequence: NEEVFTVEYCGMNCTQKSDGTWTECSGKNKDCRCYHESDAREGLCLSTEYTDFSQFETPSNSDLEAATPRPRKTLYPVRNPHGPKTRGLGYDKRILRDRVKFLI

T12: P1096_IXORI (Ixodes ricinus, UniProt A0A0K8RKE4 24-114)
T12 sequence: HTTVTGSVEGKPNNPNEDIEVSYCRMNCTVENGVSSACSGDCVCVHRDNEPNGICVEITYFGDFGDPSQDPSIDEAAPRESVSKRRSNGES

T13: P1168_IXORI (Ixodes ricinus, UniProt A0A0K8RCU3 25-106)
T13 sequence: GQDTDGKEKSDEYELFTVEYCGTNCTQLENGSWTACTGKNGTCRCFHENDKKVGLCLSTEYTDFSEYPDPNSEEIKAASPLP

T14: P1166_IXORI (Ixodes ricinus, UniProt A0A0K8RE99 25-110)
T14 sequence: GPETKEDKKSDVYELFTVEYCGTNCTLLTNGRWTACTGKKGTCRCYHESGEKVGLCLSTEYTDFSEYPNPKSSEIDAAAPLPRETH

T15: P1132_IXORI (Ixodes ricinus, UniProt V5GZ08 29-106)
T15 sequence: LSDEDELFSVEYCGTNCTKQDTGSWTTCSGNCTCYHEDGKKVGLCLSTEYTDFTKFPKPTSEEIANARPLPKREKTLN

T16: P1095_IXORI (Ixodes ricinus, UniProt A0A0K8RCE3 24-112)
T16 sequence: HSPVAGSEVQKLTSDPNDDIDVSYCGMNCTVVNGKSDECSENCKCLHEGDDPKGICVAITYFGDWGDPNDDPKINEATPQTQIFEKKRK

T17: P1156_IXORI (Ixodes ricinus, UniProt V5HBW0 29-108)
T17 sequence: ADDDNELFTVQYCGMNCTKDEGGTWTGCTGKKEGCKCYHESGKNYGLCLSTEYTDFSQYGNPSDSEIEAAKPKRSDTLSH

T18: P1127_IXORI (Ixodes ricinus, UniProt A0A0K8RJ67 29-108)
T18 sequence: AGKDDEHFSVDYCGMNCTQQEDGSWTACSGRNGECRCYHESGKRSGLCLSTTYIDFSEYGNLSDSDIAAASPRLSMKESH

B1: P1215_AMBPA (other)
chain: KTDTKNAAGELPPKVVIPGCEDPATTKAPLPDEPPYYGITIDKDGCQRKVLGSSQRQQRKVQNGRKLDGKKRGRRPVFVDLELTVDCKRKCNGTYSQLPDGENCLVSDGYPYGRWGTIKGGCYQGNCSSGQCHRGEKKVNCYLPKNITNDVPKSLNLAE
B2: P1126_AMBCA (other)
chain: KPQILQRTDKSTDSEWDPQTCPETCIPSKNITCSDGCVCVKLGEEEEGTCFNMTGVDWLGSPSDD
B3: P1820 (P1142:G4S:P1156:G4S:P467) (designed binder)
chain: KPQILQRTDHSTDSDWDPQMCPETCNPSKNISCSSECLCVTLGGGDETGTCFNMSGVDWLGHAQASDGHNDGGGGGSADDDNELFTVQYCGMNCTKDEGGTWTGCTGKKEGCKCYHESGKNYGLCLSTEYTDFSQYGNPSDSEIEAAKPKRSDTLSHGGGGSAEKSLDSDSSGEDYELWTQGCPFLVAENRTGFGTTVSCQHNCNGAIEKVPEGEPCYTIGEDGLGRMKLNLPYNCSLGECSGGVCVPNGRSDVCFKRTWEENNKAMA
B4: P1252_AMBAM (other)
chain: RGGAASVPANASIPGCGDAQTTPAAPEDQPKHYVVYRDGNGCEVKIIGTWMTTEDYNCLPDTFRKNRAPHGKVKLPASCKKTCGNAVQNLKDGTPCRKVFGDLGRRRNLIKNGCLVGACQSGLCVSGNRTISCYIPPNSTDTRATPGSFAE
B5: P1821 (P1142:G4S:P1156:G4S:P991) (designed binder)
chain: KPQILQRTDHSTDSDWDPQMCPETCNPSKNISCSSECLCVTLGGGDETGTCFNMSGVDWLGHAQASDGHNDGGGGGSADDDNELFTVQYCGMNCTKDEGGTWTGCTGKKEGCKCYHESGKNYGLCLSTEYTDFSQYGNPSDSEIEAAKPKRSDTLSHGGGGSENGEGTTQPDYDNSTDYYNYEDFKCTCPAPHLNNTNGTVMKPIGCYYTCNVTRCTAPDTYPCYNLTEHQAKNLTTSPTTLCAVGNCDHGICVPNGTKELCFKAPNLEE
B6: P974_AMBCA (other)
chain: ENTQQEEQDYDYGTDTCPFPVLANKTNKAKFVGCHQKCNGGDQKLTDGTACYVVERKVWDRMTPMLWYECPLGECKNGVCEDLRKKEDCRKGNGEEK
B7: P546_AMBCA (other)
chain: B6 chain with Q8E, E69S, D88E
B8: CXCL14_HUMAN (ligand)
chain: SKCKCSRKGPKIRYSDVKKLEMKPKYPHCEEKMVIITTKSVSRYRGQEHCLHPKLQSTKRFIKWYNAWNEKRRVYEE
B9: P993_AMBPA (other)
chain: HRHYDPNEPCLIAGLKTPRDALPAGCRYDCMIKKNQKLRDGLLCLDVPEKVVKRMVNYLNYSCPLGTCRKGICKRKHRNVRCQKYPVFYMSPPK
B10: P1015_AMBCA (other)
chain: EEAPGPAPGCGEPEPTPPKPRRHGIVTNVNSCNSTILVWNGKEFPALCKVRCPHKSYRVSDFEPCLKFTNRRFLQERKDETPYKCKLGFCRHGTCITSEHSRKVPCKVPADRLDPSE

Where a chain is given by its changes, count along the chain named. Numbers in names are those of the source. Read-outs that look alike come from different tables or passages of the source.

One assay has as its target CCL11_HUMAN (human, UniProt P51671 24-97). Kind of assay: yeast surface display FACS.
In assay [1] the target is T1, CCL5_HUMAN. The assay is described as follows: yeast surface display FACS.
The target of assay [2] is T19, CXCL12_HUMAN (human, UniProt P48061 22-89). The assay is described as follows: yeast surface display FACS.
A further assay deals with T2, CCL18_HUMAN. The assay is described as follows: yeast surface display FACS.
Assay [3] has as its target T3, CXCL8_HUMAN. Kind of assay: BLI [Cont.].
The target of the assay “CXCL14_HUMAN” is B8. The assay is described as follows: BLI. (In general: Biolayer interferometry detects binding as a change in optical thickness at a sensor tip.)
The next assay addresses T4, CXCL13_HUMAN. The assay is described as follows: BLI.
Assay [4] has as its target T19, CXCL12_HUMAN. The assay is described as follows: BLI.
In assay [5] the target is T5, CXCL10_HUMAN. Kind of assay: yeast surface display FACS re-test. Also: test concentration or dose not given here.
The target of another assay is T6, CXCL7_HUMAN. Kind of assay: yeast surface display FACS re-test. Also: test concentration or dose not given here.
The next assay deals with T7, CCL8_HUMAN. The assay is described as follows: BLI, evasin immobilised.
Assay [6] concerns the target T3, CXCL8_HUMAN. The assay is described as follows: BLI, evasin immobilised.
Assay [7] deals with T5, CXCL10_HUMAN. Kind of assay: BLI, evasin immobilised.
The target of a further assay is T8, CXCL1_HUMAN. Kind of assay: BLI, evasin immobilised.
The target in assay [8] is T1, CCL5_HUMAN. Kind of assay: BLI, evasin immobilised.
The target in a further assay is CCL2_HUMAN (human, UniProt P13500 24-99). The assay is described as follows: BLI, evasin immobilised.
The next assay has as its target T9, CCL17_HUMAN. Kind of assay: yeast surface display FACS.
Assay [9] deals with T3, CXCL8_HUMAN. Kind of assay: yeast surface display FACS.
Another assay concerns the target CCL20_HUMAN (human, UniProt P78556 27-96). Kind of assay: yeast surface display FACS.
A further assay addresses T10, CCL16_HUMAN. The assay is described as follows: BLI.
In a further assay the target is T11, P1134_IXORI. Kind of assay: BLI.
For the next assay, the target named is T12, P1096_IXORI. The assay is described as follows: BLI.
In another assay the target is T13, P1168_IXORI. The assay is described as follows: BLI.
The next assay deals with P1080_IXORI (Ixodes ricinus, UniProt A0A090XBL6 20-118). Kind of assay: BLI.
The next assay has as its target T14, P1166_IXORI. The assay is described as follows: BLI.
Another assay deals with T15, P1132_IXORI. The assay is described as follows: BLI.
The target of a further assay is T16, P1095_IXORI. Kind of assay: BLI.
A further assay addresses T17, P1156_IXORI. Kind of assay: BLI.
The next assay concerns the target T18, P1127_IXORI. The assay is described as follows: BLI.
Assay [10] concerns the target T1, CCL5_HUMAN. The assay is described as follows: yeast surface display FACS. The source holds these as a separate data set.

These results are taken from patent US20240034757A1 (OXFORD UNIVERSITY INNOVATION, published 2024).

Sequence of CCL20_HUMAN (P78556 27-96 limits assumed): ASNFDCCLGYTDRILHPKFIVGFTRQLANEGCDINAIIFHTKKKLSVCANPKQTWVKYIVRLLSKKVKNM
T19 sequence (P48061 22-89 limits assumed): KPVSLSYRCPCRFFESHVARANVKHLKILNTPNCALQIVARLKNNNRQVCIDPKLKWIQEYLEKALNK
Sequence of CCL2_HUMAN (P13500 24-99 limits assumed): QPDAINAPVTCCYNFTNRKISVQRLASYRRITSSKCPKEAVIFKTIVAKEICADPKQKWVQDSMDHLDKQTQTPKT
Sequence of CCL11_HUMAN (P51671 24-97 limits assumed): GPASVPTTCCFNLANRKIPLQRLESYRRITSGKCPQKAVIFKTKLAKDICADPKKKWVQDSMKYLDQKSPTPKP
Sequence of P1080_IXORI (A0A090XBL6 20-118): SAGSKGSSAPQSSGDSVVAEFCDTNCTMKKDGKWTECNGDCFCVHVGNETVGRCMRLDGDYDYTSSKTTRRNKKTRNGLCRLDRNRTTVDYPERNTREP

For the molecule B1, the binding result in the assay with CCL11_HUMAN, with CCL5_HUMAN [1], in the assay with CXCL12_HUMAN [2] and in the assay with CCL18_HUMAN was “binds” throughout.
With B2, the binding result with CXCL8_HUMAN [3], in the assay with CXCL14_HUMAN, with CXCL13_HUMAN and with CXCL12_HUMAN [4] was “no binding (tested: 300 nM)” each time. Further, the results for the “% cells over threshold fluorescence” value with CXCL10_HUMAN [5] and with CXCL7_HUMAN were 66% and 74%, respectively.
As to B3, the Kd (usually the constant that tells how readily two partners part at equilibrium) with CCL8_HUMAN amounted to 18.2 nM; in the assay with CXCL8_HUMAN [6], 1.11 nM; in the assay with CXCL10_HUMAN [7], 1.01 nM; in the assay with CXCL1_HUMAN it was 1.12 nM; in the assay with CCL5_HUMAN [8], 0.41 nM; with CCL2_HUMAN, 2.86 nM.
With B4, the binding result with CCL17_HUMAN, with CXCL8_HUMAN [9] and in the assay with CCL20_HUMAN was “binds” each time.
Take B5: the Kd with CCL8_HUMAN was 14.1 nM; with CXCL8_HUMAN [6], 1.55 nM; with CXCL10_HUMAN [7], 1.44 nM; in the assay with CXCL1_HUMAN, 1.86 nM; with CCL5_HUMAN [8], 0.001 nM; with CCL2_HUMAN it was 11.8 nM.
In the assay with CCL16_HUMAN, B6 returned a Kd of 11 nM.
Same read-out and setting: the same measure for B7: 6.7 nM.
As for B8, the binding result with P1134_IXORI, in the assay with P1096_IXORI, with P1168_IXORI, with P1080_IXORI, in the assay with P1166_IXORI and with P1132_IXORI was “no binding (tested: 300 nM)” in each case. Also, the binding result with P1095_IXORI, in the assay with P1156_IXORI and with P1127_IXORI was “no binding (tested: 300 nM)” throughout.
As to B9, the binding result with CCL17_HUMAN, in the assay with CCL5_HUMAN [10] and in the assay with CCL20_HUMAN was “binds” each time.
With B10, the binding result with CXCL8_HUMAN [9] and in the assay with CCL20_HUMAN was “binds” in each case.
